Biological target: Slit-N fused to alkaline phosphatase (Drosophila)
Test: alkaline phosphatase fusion binding assay on beads

B1: Dscam1 EC4 fused to Fc (Fc fusion)
chain: ANPPDADQKGPVFLKEPTNRIDFSNSTGAEIECKASGNPMPEIIWIRSDGTAVGDVPGLRQISSDGKLVFPPFRAEDYRQEVHAQVYACLARNQFGSIISRDVHVRAVVAQYYEADVNKEHVIRGNSAVIKCLIPSFVADFVEVVSWHTDEEENYFPGAEYDGKYLVLPSGELHIREVGPEDGYKSYQCRTKHRLTGETRLSATKGRLVITEPVSSSPPKINALTYKPNIVESMASTAILCPAQGYPAPSFRWYKFIEGTTRKQAVVLNDRVKQVSGTLIIKDAVVEDSGKYLCVVNNSVGGESVETVLTVTAPLSAKIDPPTQTVDFGRPAVFTCQYTGNPIKTVSWMKDGKAIGHSEPVLRIESVKKEDKGMYQCFVRNDQESAEASAELK
  Kd: 22.2 ± 2.85 nM
